Values quoted from earlier work in publication PMC5904127.

Target: apocalmodulin (UniProt P0DP23)

For “neuromodulin IQ domain (from UniProt P17677)”, the Kd is listed as 2000 nM.
